Common to all, as to experiment: ITC; ITC: 20 mM Tris pH 7.5, 200 mM NaCl, 2 mM beta-mercaptoethanol, 20 C; EMSA: 20 mM Tris pH 7.0, 200 mM NaCl, 2 mM DTT, 4 C, 1.2% agarose in TAE
A general note: In ITC the heat of successive injections is recorded.

In one data set the target is T1, BANP ΔCC (human, UniProt Q8N9N5 90-519).
T1 sequence: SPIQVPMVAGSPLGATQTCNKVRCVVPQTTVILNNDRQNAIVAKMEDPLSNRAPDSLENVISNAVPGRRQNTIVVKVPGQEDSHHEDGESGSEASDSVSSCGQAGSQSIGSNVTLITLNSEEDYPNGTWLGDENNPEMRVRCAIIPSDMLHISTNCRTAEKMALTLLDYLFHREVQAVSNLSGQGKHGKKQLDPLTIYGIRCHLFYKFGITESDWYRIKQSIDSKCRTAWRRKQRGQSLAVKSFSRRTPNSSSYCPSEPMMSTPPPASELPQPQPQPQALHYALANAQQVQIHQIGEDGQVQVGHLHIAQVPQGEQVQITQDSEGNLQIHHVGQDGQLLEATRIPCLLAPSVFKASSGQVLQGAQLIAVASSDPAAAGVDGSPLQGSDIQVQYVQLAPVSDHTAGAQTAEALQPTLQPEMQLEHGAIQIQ
The settings on record: protein: recombinant; tags: His-SUMO or His-MBP, cleaved; blunt, self-complementary.

Another data set has as its target T2, BANP BEN K278A (human, UniProt Q8N9N5 205-325, K278A).
T2 sequence: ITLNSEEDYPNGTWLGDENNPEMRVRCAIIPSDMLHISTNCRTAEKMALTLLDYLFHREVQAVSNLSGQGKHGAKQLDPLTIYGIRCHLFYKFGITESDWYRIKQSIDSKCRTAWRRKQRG
The settings on record: protein: recombinant; tags: His-SUMO or His-MBP, cleaved; chain copies: 2; blunt, self-complementary.

A further data set has as its target T3, GST-BANP BEN (human, UniProt Q8N9N5 205-325).
T3 sequence: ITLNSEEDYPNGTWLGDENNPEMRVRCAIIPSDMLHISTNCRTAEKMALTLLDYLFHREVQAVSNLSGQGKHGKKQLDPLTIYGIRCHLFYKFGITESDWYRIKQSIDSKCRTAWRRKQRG
The settings on record: protein: recombinant; tags: N-terminal GST fusion; chain copies: 2; blunt, self-complementary.

The target of a further data set is T4, BANP BEN K314A (human, UniProt Q8N9N5 205-325, K314A).
T4 sequence: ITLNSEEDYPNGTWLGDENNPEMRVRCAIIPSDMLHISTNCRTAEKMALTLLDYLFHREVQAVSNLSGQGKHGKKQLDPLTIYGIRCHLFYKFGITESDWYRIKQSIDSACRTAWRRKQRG
Particulars: protein: recombinant; tags: His-SUMO or His-MBP, cleaved; chain copies: 2; blunt, self-complementary.

Another data set addresses T5, BANP BEN R316A (human, UniProt Q8N9N5 205-325, R316A).
T5 sequence: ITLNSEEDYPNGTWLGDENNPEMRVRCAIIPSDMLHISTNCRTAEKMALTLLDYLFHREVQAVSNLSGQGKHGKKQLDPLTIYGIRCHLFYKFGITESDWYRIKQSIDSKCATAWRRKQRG
Particulars: protein: recombinant; tags: His-SUMO or His-MBP, cleaved; chain copies: 2; blunt, self-complementary.

B1: 12-CGCG (dsDNA)
DNA 1: ATCTCGCGAGAT
DNA 2: ATCTCGCGAGAT
As usually defined, the Kd is the equilibrium constant for the complex coming apart. On to B1, for which the dissociation constant Kd with BANP ΔCC was 3.4 ± 0.5 µM; with BANP BEN K278A it was 35.6 ± 4.1 µM; in the data set with GST-BANP BEN, 2.3 ± 0.4 µM; in the data set with BANP BEN K314A it was 25.2 ± 3.8 µM; with BANP BEN R316A, 16.8 ± 1.6 µM.

The values are drawn from PMC11472053, “Structural basis of DNA recognition by BEN domain proteins reveals a role for oligomerization in unmethylated DNA selection by BANP” (Nucleic Acids Research, 2024).
